Entries after “also recorded” stand apart in the source; their conditions may differ.

This note sets out measurements from EP1657250A1, “HLA-A *01-binding T-cell epitope of WT1” (Charité - Universitätsmedizin Berlin, priority 2004, dated 2006).

One experiment deals with T1, immunoproteasome (Homo sapiens, UniProt P28062+P28065+P40306).
T1 construct: Proteasomes were isolated from the EBV-transformed B-cell line; endogenous in cells; host or cells: LCL-721 (EBV-transformed B-cell line)
The experiment is described as follows: In vitro proteasome digestion of the precursor peptide, immunoproteasome. The format is biochemical. Particulars: 6 h incubation; Edman sequencing and MALDI-TOF. The procedure: (§1) Purification of 20S proteasomes, in vitro degradation of WT1.314-336 (SEQ ID NO: 6), and separation and analysis of cleavage products were performed as described (16). 10 nmol (27.6 µg) of WT1.314-336 were incubated for 6 h with 2 µg immunoproteasome or with 2 µg of constitutive proteasome, respectively, in digestion buffer (20 mM Tris-HCI; pH 7.6; 10 mM NaCl; 10 mM KCI; 2 mM MgCl2; 0.5 mM DTT) and the reaction stopped by freezing the reaction mixture at -80°C.
(§2) One crucial prerequisite for a peptide to be presented as a T-cell epitope is its proper excision from the protein. We analyzed in vitro digestion of the […] WT1-derived peptide 314-336 (SEQ ID NO: 6) encompassing the WT1.317-327 epitope […] (SEQ ID NO: 1) by constitutive as well as immunoproteasomes (Fig. 2). Proteasomes were isolated from the EBV-transformed B-cell line LCL-721.174 (constitutive proteasome) and the parental cell line LCL-721 (immunoproteasome, ref. 16) and were used for digestion with a 6-hour incubation period. A combination of Edman sequencing and MALDI-TOF mass spectrometry was subsequently performed to determine the identity and quantity of peptides generated after proteasome digestion. The amount of fragments detected is indicated.

The target in the next experiment is T2, constitutive proteasome (Homo sapiens, UniProt P28072+P28074+Q99436).
T2 construct: Proteasomes were isolated from the EBV-transformed B-cell line; endogenous in cells; host or cells: LCL-721.174 (EBV-transformed B-cell line)
The experiment is described as follows: In vitro proteasome digestion of the precursor peptide, constitutive proteasome. The class given is biochemical. Particulars: 6 h incubation; Edman sequencing and MALDI-TOF. As for the experimental part: as §1, §2

With “WT1.314-336: WT1-derived precursor peptide 314-336 encompassing the WT1.317-327 epitope (ASETSEKRPFMCAYPGCNKRYFK)”, in the experiment with immunoproteasome, the “generation of C-terminal residue Tyr-327 (fragments detected)” value was “generated as the major fragment (314-327); also recorded: complementary fragment 328-336 represented the other major fragment” and the “processing of the N-terminus” value was “No processing of the N-terminus was observed”. In addition, in the experiment with constitutive proteasome, the “cleavage site C-terminal to Tyr-327 (fragments detected)” value is “fragment 328-336 was efficiently generated” and the “processing of the N-terminus Thr-317” value was “a fragment was found sharing the N-terminus Thr-317 (T)”.
